Test results: publication PMC4005638, “Interactions between the non-seed region of siRNA and RNA-binding RLC/RISC proteins, Ago and TRBP, in mammalian cells”

T1: TRBP (Homo sapiens, UniProt Q15633 1-366)
T1 sequence: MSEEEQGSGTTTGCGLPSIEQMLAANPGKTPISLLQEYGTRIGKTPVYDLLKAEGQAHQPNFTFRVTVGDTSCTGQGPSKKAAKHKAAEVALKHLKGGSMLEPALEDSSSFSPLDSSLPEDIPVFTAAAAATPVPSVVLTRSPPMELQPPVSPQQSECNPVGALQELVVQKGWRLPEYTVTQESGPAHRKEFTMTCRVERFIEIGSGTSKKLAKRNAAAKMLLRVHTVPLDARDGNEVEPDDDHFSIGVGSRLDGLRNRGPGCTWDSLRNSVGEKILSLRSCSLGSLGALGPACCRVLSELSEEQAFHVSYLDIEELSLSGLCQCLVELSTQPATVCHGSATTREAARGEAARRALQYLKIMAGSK


Experiments:
[1] = target: T2, GST-PAZ (human AGO1 PAZ domain) (Homo sapiens, UniProt Q9UL18 222-376); experiment: EMSA; TRBP EMSA: 20 mM Tris pH 7.5, 150 mM NaCl, 2 mM EDTA, 1 mM 2-ME, 1 mM DTT, 50 ng/ml salmon sperm DNA, RNasin, 0.5 nM siRNA, 30 min; PAZ EMSA: 1 pmol/ul PAZ, 5 fmol/ul siRNA, 20 mM Tris-HCl pH 7.5, 100 mM NaCl, 2 mM EDTA, 1 mM DTT, 5% glycerol, 50 ng/ul poly(dA-dT), RNasin, 30 min, room temperature; settings: protein: recombinant; tags: N-terminal GST, C-terminal 6xHis; label: 32P guide strand; 19 bp, 2-nt 3' overhangs
T2 sequence (Q9UL18 222-376): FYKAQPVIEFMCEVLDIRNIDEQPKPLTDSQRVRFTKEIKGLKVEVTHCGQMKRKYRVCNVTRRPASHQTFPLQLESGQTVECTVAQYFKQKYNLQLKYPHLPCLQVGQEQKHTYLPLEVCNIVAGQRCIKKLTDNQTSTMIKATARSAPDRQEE

[2] = target: T1, TRBP; experiment: EMSA; virtually no binding; TRBP EMSA: 20 mM Tris pH 7.5, 150 mM NaCl, 2 mM EDTA, 1 mM 2-ME, 1 mM DTT, 50 ng/ml salmon sperm DNA, RNasin, 0.5 nM siRNA, 30 min; PAZ EMSA: 1 pmol/ul PAZ, 5 fmol/ul siRNA, 20 mM Tris-HCl pH 7.5, 100 mM NaCl, 2 mM EDTA, 1 mM DTT, 5% glycerol, 50 ng/ul poly(dA-dT), RNasin, 30 min, room temperature; settings: protein: recombinant; tags: N-terminal 6xHis; label: 32P guide strand; 19 bp, 2-nt 3' overhangs
[3] = target: T2, GST-PAZ (human AGO1 PAZ domain); experiment: EMSA; strong; TRBP EMSA: 20 mM Tris pH 7.5, 150 mM NaCl, 2 mM EDTA, 1 mM 2-ME, 1 mM DTT, 50 ng/ml salmon sperm DNA, RNasin, 0.5 nM siRNA, 30 min; PAZ EMSA: 1 pmol/ul PAZ, 5 fmol/ul siRNA, 20 mM Tris-HCl pH 7.5, 100 mM NaCl, 2 mM EDTA, 1 mM DTT, 5% glycerol, 50 ng/ul poly(dA-dT), RNasin, 30 min, room temperature; settings: protein: recombinant; tags: N-terminal GST, C-terminal 6xHis; label: 32P guide strand; 19 bp, 2-nt 3' overhangs

| Binder | binding result [1] | binding result [2] | binding result [3] |
| --- | --- | --- | --- |
| siLuc-36 nonmodified (dsRNA) RNA 1: UCUUCCAGCGGAUAGAAUGGC RNA 2: CAUUCUAUCCGCUGGAAGAUG | binds | – | – |
| siLuc-36 siDNA (dsDNA, all ribonucleotides replaced by DNA) DNA 1: TCTTCCAGCGGATAGAATGGC DNA 2: CATTCTATCCGCTGGAAGATG | no binding | no binding | – |
| siLuc2-153 siDNA (dsDNA, all ribonucleotides replaced by DNA) DNA 1: TCGAAGTATTCCGCGTACGTG DNA 2: CGTACGCGGAATACTTCGATT | – | no binding | – |
| siLuc-36 TCA-RNA (mixed, DNA: seed duplex and subdomain B (guide 1-8, 13-14; passenger 6-7, 12-21)) DNA 1: TCTTCCAGCGGATAGAAUGGC DNA 2: CAUUCTAUCCGCTGGAAGATG | – | – | binds |
